“And” between values parts separate entries of the source, which are not always exact repeats. Equal entries are not always repeated.
Tests used:
human TMEM106B [1] = target: T1, human TMEM106B (human, UniProt Q9NUM4 2-274); experiment: FACS HeLa;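 also: flow cytometry of cells incubated with hybridoma supernatant or purified antibody at 10 µg/ml for 1 h on ice, propidium iodide–positive dead cells gated out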
T1 construct: Full-length, on transiently transfected HEK293 cells, or natively expressed on HeLa, U251 and A549 cells; also called huTMEM106B; huTMEM
Method: (§1) All cells were cultured in either T75 or T150 flasks. […] The enzyme was quenched by addition of fresh media, and the cells were then distributed into 96-well plates for FACS analysis.
(§2) FACS analysis was performed as follows. Each cell type was aliquoted in 96-well round bottom plates (2x10^5 cells per well), washed once with FACS buffer (PBS + 2% FBS + 1 mM EDTA), and incubated with 50 µL of hybridoma supernatant or purified antibody (10 µg/ml in FACS buffer) on ice for 1 hour. […] Following this secondary incubation, the cells were again washed 2x with ice-cold FACS buffer and resuspended in a final volume of 50 µL of FACS buffer + 0.25 µl/well propidium iodide (Fisher Scientific # BDB556463). Analysis was performed on a FACSCanto system (BD Biosciences) or iQue (Intellicyt), with sort gates drawn to exclude dead (i.e., propidium iodide positive) cells.
(§3) Data is presented as mean fluorescence intensity (MFI).

human TMEM106B [2] = target: T1, human TMEM106B; experiment: FACS, HEK293 transfectants;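 as to fold over negative controls: hybridoma supernatants incubated 30 min on ice with human TMEM106B-expressing HEK293 cells, binding read as anti-mouse-APC median fluorescence on live cells, relative to secondary-antibody-only wells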;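 as to fold-change over parental HEK293: flow cytometry binding of hybridoma supernatants to HEK293 cells transiently expressing human, cyno or mouse TMEM106B, read as anti-mouse-APC median fluorescence, live cells only, 30 min on ice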
Method: Initial screening of the anti-TMEM106B hybridomas was performed as follows.
For screening of the hybridoma cell culture supernatants, humanTMEM106B-transfected HEK293 cells were aliquoted in 96-well round bottom plates (2x10^5 cells per well) and incubated with 50 µL of hybridoma cell culture supernatant on ice for 30 minutes. […] Cell sorting was performed on a FACS Canto system (BD Biosciences) or iQue (Intellicyt), with sort gates drawn to exclude dead (i.e., propidium iodide-positive) cells. Median fluorescence intensity (MFI) of anti-mouse-APC MFI on TMEM106B+ HEK293 cells was calculated for each clone, and those displaying a signal of at least 2-fold over background compared to a secondary-antibody only well were taken forward for further analysis and characterization.

[3] = target: T2, GST-fusion human TMEM106B truncated (human); experiment: array SPR, Ab immobilised;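 also: antibodies amine-coupled on an MX-96 chip, antigen flowed at 500 nM top concentration in 5-fold serial dilutions, GST alone run as nonspecific-binding control, duplicate measurements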
T2 construct: also called GST-TMEM106B-truncated protein; GST-TMEM106B (truncated)

human TMEM106B [4] = target: T1, human TMEM106B; experiment: FACS HEK+huTMEM, 1.0 ug/ml
Method: (§4) Purified anti-TMEM106B antibodies were evaluated for their binding affinity to various TMEM106B-expressing cell lines including HEK293 transiently transfected with human/cyno/mouse TMEM106B, as well as HeLa cells and A549 cells. Antibodies tested for this experiment were mouse IgGs purified from hybridoma supernatant. Affinity binding to cells was determined as follows. Briefly, 1x10^5 cells were aliquoted per well in 96-well round bottom plates and incubated with 50 µL of purified anti-TMEM106B antibody at various concentrations (10x dilutions starting at 10 µg/ml) in FACS buffer (PBS + 2% FBS + 1 mM EDTA). […] Sorting was performed on a iQue (Intellicyt), with sort gates drawn to exclude dead (propidium iodide +) cells. Binding data was analyzed using median fluorescent intensity (MFI) and graphed in Prism. Values presented are MFI.

human TMEM106B [5] = target: T1, human TMEM106B; experiment: FACS HEK+huTMEM, 0.1 ug/ml;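 also: flow cytometry binding of purified mouse IgG antibodies to HEK293 cells transiently expressing TMEM106B, read as median fluorescence intensity with propidium iodide positive dead cells gated out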
Method: as §4

human TMEM106B [6] = target: T1, human TMEM106B; experiment: FACS A549, 10 ug/ml
Method: as §4

human TMEM106B [7] = target: T1, human TMEM106B; experiment: FACS U251;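 also: flow cytometry of cells exposed to antibody (purified at 10 µg/mL, or hybridoma supernatant) for 1 h on ice, with propidium iodide-positive dead cells gated out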
GST (Pierce) [8] = target: T3, GST (Pierce) (UniProt P08515 1-218 = GST, limits assumed); experiment: array SPR, Ab immobilised
T3 construct: control for the GST part of the fusion protein; also called GST protein; Glutathione-S-transferase

human TMEM106B [9] = target: T1, human TMEM106B; experiment: FACS HEK+huTMEM, 0.01 ug/ml
Method: as §4

human TMEM106B [10] = target: T1, human TMEM106B; experiment: FACS A549, 1 ug/ml
mouse TMEM106B [11] = target: T4, mouse TMEM106B (mouse, UniProt Q80X71 2-275); experiment: FACS Neuro2a;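 also: flow cytometry of cells stained with antibody or hybridoma supernatant (purified antibody at 10 µg/ml) for 1 h on ice, propidium iodide–positive dead cells gated out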
T4 construct: on transiently transfected HEK293 cells, or natively expressed on mouse Neuro2a cells; also called moTMEM106B; murine TMEM106B

human TMEM106B [12] = target: T1, human TMEM106B; experiment: FACS, HEK293 transfectants; remark: listed apart in the source;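 as to fold over negative controls: hybridoma supernatants incubated 30 min on ice with human TMEM106B-expressing HEK293 cells, binding read as anti-mouse-APC median fluorescence on live cells, relative to secondary-antibody-only wells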;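 as to fold-change over parental HEK293: flow cytometry binding of hybridoma supernatants to HEK293 cells transiently expressing human, cyno or mouse TMEM106B, read as anti-mouse-APC median fluorescence, live cells only, 30 min on ice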
[13] = target: T5, cynomolgus (cyno) TMEM106B (cynomolgus, UniProt Q9NUM4 2-274 (human entry)); experiment: FACS, HEK293 transfectants;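 also: flow cytometry binding of hybridoma supernatants to HEK293 cells transiently expressing human, cyno or mouse TMEM106B, read as anti-mouse-APC median fluorescence, live cells only, 30 min on ice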
T5 construct: on transiently transfected HEK293 cells

mouse TMEM106B [14] = target: T4, mouse TMEM106B; experiment: FACS, HEK293 transfectants;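 also: flow cytometry binding of hybridoma supernatants to HEK293 cells transiently expressing human, cyno or mouse TMEM106B, read as anti-mouse-APC median fluorescence, live cells only, 30 min on ice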
human TMEM106B [15] = target: T1, human TMEM106B; experiment: FACS HEK+huTMEM, 10 ug/ml;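 also: purified mouse IgG antibodies at 10 µg/ml bound to HEK293 cells transiently expressing human TMEM106B, measured by flow cytometry as median fluorescence intensity of propidium iodide negative live cells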
human TMEM106B [16] = target: T1, human TMEM106B; experiment: FACS A549
Method: as §1, §2, §3

[17] = target: T2, GST-fusion human TMEM106B truncated; experiment: epitope binning, array SPR (Community 3, Bin 5)
Method: Epitope binning of the anti-TMEM106B antibodies was performed by Carterra (Salt Lake City, Nevada, USA) using a pre-mix epitope binning approach.

GST (Pierce) [18] = target: T3, GST (Pierce); experiment: ELISA, coated GST;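 also: ELISA on plates coated with GST alone at 1-10 µg/ml, antibodies applied at 100-1000x dilution, bound antibody detected by peroxidase substrate colour after acid stop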
Method: Briefly, 96-well polystyrene plates were coated with 1-10 µg/ml of recombinant GST-TMEM106B-truncated protein or GST (Pierce) in PBS either at 370 Cfor 1-4 hours or overnight at 4 °C. Coated plates were then blocked with 5% BSA for 1-hour, washed 3×150 µL in TBST (Tris-buffered saline + 0.1% Tween20), and then the antibodies were added at various dilutions (100-1000x) in PBS. After 1-hour incubation (room temperature, with shaking), the plates were washed 3x150 µL in TBST. […] After a final set of washes (3×150µL in TBST), 100 µL of peroxidase substrate was added for 1 minute; the reaction was then quenched with 2N sulfuric acid (100 µL).

Row | Binder | MFI (human TMEM106B [1]) | fold over negative controls (human TMEM106B [2]) [fold] | Kd [3] | koff [3] | kon [3] | MFI (human TMEM106B [4]) | MFI (human TMEM106B [5]) | MFI (human TMEM106B [6]) | MFI (human TMEM106B [7]) | binding result (GST (Pierce) [8]) | MFI (human TMEM106B [9]) | MFI (human TMEM106B [10]) | MFI (mouse TMEM106B [11]) | fold-change over parental HEK293 (human TMEM106B [12]) [fold] | fold-change over parental HEK293 [13] [fold] | fold-change over parental HEK293 (mouse TMEM106B [14]) [fold] | MFI (human TMEM106B [15]) | MFI (human TMEM106B [16]) | binding result [17] | binding result (GST (Pierce) [18])
1 | anti-TMEM106B antibody TM-35 (antibody, V domains shown) VH: QVQLQQSGPELVRPGTSVKISCKAPGYTFTRHWMQWVRQRPGQGLEWIGEILPGSNNIYYNEKVKGKATLTVDTSSSTSYMQLSSLTSEDSAVYFCARSLYDYDGVFAYWGQGTLVTVSA VL: DVLMTQIPLSLPVSLGDQASISCRSSQSIVHRNGNTYLEWYLQKPGQSPKLLIYKVSNRFSGVPDRFSGSGSGTDFTLKISRVEAEDLGVYYCFQGSHVPYTFGGGTKLEIK | 241 | > 2 | 6 nM and 6.8 nM | 9e-05 s⁻¹ and 0.00011 s⁻¹ | 15000 M⁻¹ s⁻¹ and 16000 M⁻¹ s⁻¹ | 55400 | 22600 | 4200 | 370 | no binding | 4080 | 3270 | 181 | 11.5 | 14.7 | 1.04 | 48700 | 982 | – | –
2 | anti-TMEM106B antibody TM-48 (antibody, V domains shown) VH: QVQLQQSGPELVKPGASVKLSCKASGYTFTSYDINWVKQRPGQGLEWIGWIYPRDGNTQYIEKLKGKATLTVDTSSSTAYMELHSLTSEDSAVYFCARWIFYAMDYWGQGTSVTVSS VL: DVLMTQTPLSLPVSLGNQASISCRSSQSIVHGNGNTYLEWYLQKPGQSPKLLIYKVSNRFSGVPDRFSGSGSGTDFTLKISRVEAEDLGVYYCFQGSHLPYTFGGGTKLEIK | 219 | > 2 | 3.1 nM and 3.9 nM | 5.3e-05 s⁻¹ and 5.6e-05 s⁻¹ | 17000 M⁻¹ s⁻¹ and 14000 M⁻¹ s⁻¹ | 39900 | 21600 | 2450 | 346 | no binding | 4050 | 1580 | 292 | 16.7 | 16.4 | 28.5 | 38200 | 677 | – | –
3 | anti-TMEM106B antibody TM-33 (antibody, V domains shown, mouse IgG from hybridoma) VH: EFQLQQSGPELVKPGASVKISCKASGYSFTDYNMNWVKQSNGKSLEWIGVINPNYGTTSYNQKFKGKATLTVDQSSSTAYMQLNSLTSEDSAVYYCASSYWGQGTLVTVSA VL: DIVMTQSQKFMSTTVGDRVSITCKASQNVGTAVAWYQQKPGQSPKLLIYSASNRYTGVPDRFTGSGSGTDFTLTISNMQSEDLADYFCQQYSSYPYTFGGGTKLEIK | 148 | > 2 | – | – | – | 5630 | 1750 | 514 | 202 | – | 651 | 366 | 233 | 10.2 | 7.74 | 45.8 | 12100 | 298 | no binding (tested: 55 nM antigen) | no binding
4 | anti-TMEM106B antibody TM-6 (antibody, V domains shown, mouse IgG from hybridoma) VH: QVQLQQSGAELVKPGASVKLSCKASGYTFTEYTIHWVKQRSGQGLEWIGWFYPGSTYIDYNEKFKDKATLTADKSSSTVYLELSRLTSEDSAVYFCARHEEDYSNWFPFWGQGTLVTVSA VL: DIQMSQSSSYLSVSLGGRVTITCKASDHINNWLAWYQQKPGNAPRLLISGATSLETGVPSRFSGSGSGKDYTLSITSLQTEDVATYYCQQYWSSPYTFGGGTKLEIK | 520 | > 2 | – | – | – | 393 | 327 | 544 | 304 | – | 294 | 418 | 371 | 4.13 | 1.25 | 1.25 | 581 | 1100 | no binding (tested: 55 nM antigen) | no binding

From patent US20230303681A1 (published 2023)
